Assay results from article PMC12058022, “Promiscuous structural cross-compatibilities between major shell components of Klebsiella pneumoniae bacterial microcompartments” (PLOS One, 2025).

Tests used:
Test in all cases: SEC; SEC-HPLC of purified individual His6-tagged BMC-H (urea-purified fractions; EutM, CmcB and EutK also from the soluble fraction), Beckman Ultraspherogel SEC2000, 20 mM Tris-HCl, 300 mM NaCl, pH 7; size from calibration standards
[1] = biological target: CmcA, His6-tagged (Klebsiella pneumoniae (strain 342))
[2] = biological target: CmcB, His6-tagged (Klebsiella pneumoniae (strain 342))
[3] = biological target: CmcC, His6-tagged (Klebsiella pneumoniae (strain 342))
[4] = biological target: CmcE, C-terminally His6-tagged (Klebsiella pneumoniae (strain 342))
[5] = biological target: CmcE, N-terminally His6-tagged (Klebsiella pneumoniae (strain 342))
[6] = biological target: EutM, His6-tagged (Klebsiella pneumoniae (strain 342))
[7] = biological target: EutS, His6-tagged (Klebsiella pneumoniae (strain 342))
[8] = biological target: PduU, N-terminally His6-tagged (Klebsiella pneumoniae (strain 342)) (UniProt A6TDE7)
[9] = biological target: the molecule itself

CmcA, His6-tagged (natural protein)
stoichiometry N [1]: 6

CmcB, His6-tagged (natural protein)
stoichiometry N [2]: 6

CmcC, His6-tagged (natural protein)
stoichiometry N [3]: 6

CmcE, C-terminally His6-tagged (natural protein)
stoichiometry N [4]: 6

CmcE, N-terminally His6-tagged (natural protein)
stoichiometry N [5]: 6

EutM, His6-tagged (from UniProt A0A377ZA59 1-64) (natural protein)
stoichiometry N [6]: 6

EutS, His6-tagged (natural protein)
stoichiometry N [7]: 6

PduU, N-terminally His6-tagged (from UniProt A6TDE7 1-116) (natural protein)
stoichiometry N [8]: 6

B1: PduA, His6-tagged (natural protein, Klebsiella pneumoniae (strain 342), UniProt A0ACD7U6D6 1-94, looked up)
chain: MQQEALGMVETKGLTAAIEAADAMVKSANVLLVGYERIGSGLVTVIVRGDVGAVKAATDAGAAAARHVGEVKAVHVIPRPHTDVEKILPKGNSQ
notes: PduA, canonical BMC-H shell protein of the PDU microcompartment; theoretical monomer MW 9.8 kDa; source: also co-expressed with a FLAG-tagged partner, in soluble lysate fraction and co-purified; not shown: His6, C-terminal, kept
stoichiometry N [9]: 6

B2: PduJ, His6-tagged (natural protein, Klebsiella pneumoniae (strain 342), UniProt A6TDD7 1-91, looked up)
chain: MNNALGLVETKGLVGAIEAADAMVKSANVQLIGYEKIGSGLITVMVRGDVGAVKAAVDAGSAAASVVGEVKSSHVIPRPHSDVEAILPKSV
notes: PduJ, canonical BMC-H shell protein of the PDU microcompartment; theoretical monomer MW 9.2 kDa; not shown: His6, C-terminal, kept
stoichiometry N [9]: 6
